# Assay results reported in patent US20240294611A1 (University of Texas, published 2024).
# B1: 3A3 full-length antibody (mouse variable region-human IgG1 constant region chimera) (antibody, V domains shown)
# VH: QVQLQQSGAELLKPGASVKLSCTASGFNIKDTYIHWLKQRPEQGLEWIGRIGPAIGNTIYAPKFQGKATITTDTSSNTAYLQLSSLTSEDTAVYYCARYYGSSYYYFDYWGQGTTLTVSS
# VL: DIVMTQSAPSVPVTPGESVSISCRSSKSLLHSNGNTYLYWFLQRPGQSPQLLIYRMSNLASGVPDRFSGSGSGTAFTLRISRVEAEDVGVYYCMQYLEYPLTFGAGTKLELKR
# Target: SARS-CoV spike without stabilizing modifications on pseudovirus (SARS-CoV, UniProt P59594 14-1255)
# Assay: cell-based or functional assay
binder,measurement,value
B1,Pseudovirus IC50,188 nM
